Laboratory results: US20140302043A1

Molecular target: hemagglutinin (HA) of H1N1 virus strain A/Brazil/1403/2003 (influenza A virus H1N1, A/Brazil/1403/2003)
Assay: cell-based or functional assay

Row | Substance | mAb minimum effective concentration (EC99, microneutralization on MDCK cells)
1 | mAb CH67 (antibody) | 0.195 µg/mL
2 | mAb CH65, recombinant intact IgG1 (antibody) | 3.12 µg/mL
